Laboratory results as given in paper PMC8844851 (The Journal of Biological Chemistry, 2022).

Target: T1, C-terminally FLAG-tagged Cdc123 (S. cerevisiae, UniProt Q05791 1-360)
T1 construct: Cdc123 of S. cerevisiae; also called Cdc123^FLAG; source: S. cerevisiae, in lysate; not shown: FLAG, C-terminal, kept
T1 sequence (looked up): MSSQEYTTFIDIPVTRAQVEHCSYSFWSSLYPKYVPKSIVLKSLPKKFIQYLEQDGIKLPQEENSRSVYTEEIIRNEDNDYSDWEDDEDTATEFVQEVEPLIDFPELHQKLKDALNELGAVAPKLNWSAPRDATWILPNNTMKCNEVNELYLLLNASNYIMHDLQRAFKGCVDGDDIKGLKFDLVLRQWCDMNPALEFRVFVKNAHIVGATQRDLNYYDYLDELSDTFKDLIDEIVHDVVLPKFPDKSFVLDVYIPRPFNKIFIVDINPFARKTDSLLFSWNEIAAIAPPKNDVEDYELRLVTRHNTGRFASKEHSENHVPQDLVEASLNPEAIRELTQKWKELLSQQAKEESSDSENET
Assay: co-IP; Cdc123-FLAG precipitated with anti-FLAG beads from yeast extract, 4 °C, 2 h; subunit signal in IP normalised to whole cell extract, Gcd11 set to 100% (n = 3); also SUI2/SUI2 against sui2Δ/SUI2 diploid strains (n = 4)
Conditions: partners not purified

B1: yeast eIF2γ (Gcd11) (natural protein, UniProt P32481 1-527, looked up)
chain: MSDLQDQEPSIIINGNLEPVGEPDIVEETEVVAQETQETQDADKPKKKVAFTGLEEDGETEEEKRKREFEEGGGLPEQPLNPDFSKLNPLSAEIINRQATINIGTIGHVAHGKSTVVRAISGVQTVRFKDELERNITIKLGYANAKIYKCQEPTCPEPDCYRSFKSDKEISPKCQRPGCPGRYKLVRHVSFVDCPGHDILMSTMLSGAAVMDAALLLIAGNESCPQPQTSEHLAAIEIMKLKHVIILQNKVDLMREESALEHQKSILKFIRGTIADGAPIVPISAQLKYNIDAVNEFIVKTIPVPPRDFMISPRLIVIRSFDVNKPGAEIEDLKGGVAGGSILNGVFKLGDEIEIRPGIVTKDDKGKIQCKPIFSNIVSLFAEQNDLKFAVPGGLIGVGTKVDPTLCRADRLVGQVVGAKGHLPNIYTDIEINYFLLRRLLGVKTDGQKQAKVRKLEPNEVLMVNIGSTATGARVVAVKADMARLQLTSPACTEINEKIALSRRIEKHWRLIGWATIKKGTTLEPIA
notes: Gcd11, eIF2 gamma subunit of S. cerevisiae, untagged endogenous protein detected with antiserum; source: endogenous, S. cerevisiae (W303 derivatives) lysate
- fold increase of coprecipitation in the sui2Δ/SUI2 strain over SUI2/SUI2: 1.3 fold
